Results taken from KR20210043475A (dated 2021).

Legend:
PD-L1 on cells [1] = target: T1, PD-L1 on cells (human, UniProt Q9NZQ7 19-290); assay: cell-based or functional assay
CD3 on T cells = target: T2, CD3 on T cells (UniProt P07766 23-207); assay: flow cytometry, apparent affinity on CD3 + Jurkat T cells
T2 construct: whole, on cells; also called CD3 + Jurkat T 세포; Jurkat T 세포의 CD3

PD-L1 on cells [2] = target: T1, PD-L1 on cells; assay: flow cytometry, apparent affinity on PD-L1 + Karpas-299 cells
PD-L1-his [3] = target: T3, PD-L1-his (human, UniProt Q9NZQ7 19-238, limits assumed); assay: SPR (Biacore 8K), PD-L1-his immobilised on CM5 chip, binder as analyte
T3 construct: also called 인간 PD-L1; not shown: his tag
T3 sequence (Q9NZQ7 19-238 limits assumed): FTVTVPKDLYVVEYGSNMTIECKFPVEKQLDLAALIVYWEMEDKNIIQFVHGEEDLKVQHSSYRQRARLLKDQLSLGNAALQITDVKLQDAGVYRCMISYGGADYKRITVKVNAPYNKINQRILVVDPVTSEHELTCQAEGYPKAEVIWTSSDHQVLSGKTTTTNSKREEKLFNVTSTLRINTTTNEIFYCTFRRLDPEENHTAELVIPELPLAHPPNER

PD-L1-his [4] = target: T3, PD-L1-his; assay: SPR (Biacore 8K); ratio of KD against YBL-007 on PD-L1
PD-L1-his [5] = target: T3, PD-L1-his; assay: SPR (Biacore 8K), PD-L1-his immobilised on CM5 chip, binder as analyte; monovalent stem Fv

T1 sequence (Q9NZQ7 19-290): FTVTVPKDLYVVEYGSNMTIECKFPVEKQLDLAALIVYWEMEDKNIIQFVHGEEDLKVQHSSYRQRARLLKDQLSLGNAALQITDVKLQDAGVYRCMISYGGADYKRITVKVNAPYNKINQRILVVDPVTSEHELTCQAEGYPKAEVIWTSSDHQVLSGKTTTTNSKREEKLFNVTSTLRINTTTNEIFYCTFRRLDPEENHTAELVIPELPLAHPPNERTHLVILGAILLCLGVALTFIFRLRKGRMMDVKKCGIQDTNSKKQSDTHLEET
T2 sequence (P07766 23-207): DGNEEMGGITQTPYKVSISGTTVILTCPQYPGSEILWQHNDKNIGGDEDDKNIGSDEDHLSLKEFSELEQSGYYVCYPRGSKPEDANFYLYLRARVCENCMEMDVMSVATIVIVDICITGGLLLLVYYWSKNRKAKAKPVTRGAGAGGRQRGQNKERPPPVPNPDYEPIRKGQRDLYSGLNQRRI

B1: ACE-05 (항-PD-L1 Fab × 항-CD3 Fv) (bispecific antibody)
heavy 1: not shown
heavy 2: not shown
light: QLVLTQPPSVSGAPGQRVTISCTGSSSNIGAGYDVHWYQQLPGAAPKLLIYGDINRPSGVPDRFSGSKSGISASLAITGLQAEDEADYYCQSYDSSLSGGVFGGGTKLTVLRSVAAPSVFIFPPSDEQLKSGTASVVCLLNNFYPREAKVQWKVDNALQSGNSQESVTEQDSKDSTYSLSSTLTLSKADYEKHKVYACEVTHQGLSSPVTKSFNRGEC
notes: also called ALiCE; ACE-05-VH / ACE-05-VL / ACE-05-LC
T 세포 활성화 효율 (EC50); PD-1/PD-L1 blockade bioassay, NFAT-luciferase, PD-L1/aAPC CHO-K1 + PD-1 Jurkat (PD-L1 on cells [1]): 0.21 nM | T 세포 활성화 효율, fold against BiTE-05; PD-1/PD-L1 blockade bioassay (PD-L1 on cells [1]): 5 fold | 표적 사멸 활성 (EC50), LDH release, PD-L1 + HCC827 cells with effector cells (PBMC) (PD-L1 on cells [1]): 0.00197 nM | 표적 사멸 활성 (EC50), LDH release, PD-L1 + MDA-MB-231 cells with effector cells (CD3 + T cells) (PD-L1 on cells [1]): 0.00837 nM | Kd (CD3 on T cells): 52.4 nM | Kd (PD-L1 on cells [2]): 0.0314 nM | Kd (PD-L1-his [3]): 0.678 nM

B2: ACE-31 (항-CD3 Fab × 항-PD-L1 Fv) (bispecific antibody)
heavy 1: EVQLQQSGPELVKPGPSMKISCKASGYSFTGYTMNWVKQSHGKNLEWMGLINPYKGVSTYNQKFKDKATLTVDKSSSTAYMELLSLTSEDSAVYYCARSGYYGDSDWYFDVWGQGTTLTVFSASTKGPSVFPLAPSSKSTSGGTAALGCLVKDYFPEPVTVSWNSGALTSGVHTFPAVLQSSGLYSLSSVVTVPSSSLGTQTYICNVNHKPSNTKVDKKVEPKSCDKTHTCPPCPPCPAPELLGGPGGGGSGGGGSQMQLVQSGAEVKKPGSSVKVSCKASGGTFSSYAISWVRQAPGQGLEWMGRIIPILGIANYAQKFQGRVTITADKSTSTAYMELSSLRSEDTAVYYCAKPRDGYNLVAFDIWGQGTMVTVSS
heavy 2: EVQLQQSGPELVKPGPSMKISCKASGYSFTGYTMNWVKQSHGKNLEWMGLINPYKGVSTYNQKFKDKATLTVDKSSSTAYMELLSLTSEDSAVYYCARSGYYGDSDWYFDVWGQGTTLTVFSASTKGPSVFPLAPSSKSTSGGTAALGCLVKDYFPEPVTVSWNSGALTSGVHTFPAVLQSSGLYSLSSVVTVPSSSLGTQTYICNVNHKPSNTKVDKKVEPKSCDKTHTCPPCPPCPAPELLGGPGGGGSQLVLTQPPSVSGAPGQRVTISCTGSSSNIGAGYDVHWYQQLPGAAPKLLIYGDINRPSGVPDRFSGSKSGISASLAITGLQAEDEADYYCQSYDSSLSGGVFGGGTKLTVLR
light: DIQMTQTTSSLSASLGDRVTISCRASQDIRNYLNWYQQKPDGTVKLLIYYTSRLHSGVPSKFSGSGSGTDYSLTISNLEQEDIATYFCQQGNTLPWTFAGGTKLEIKRTVAAPSVFIFPPSDEQLKSGTASVVCLLNNFYPREAKVQWKVDNALQSGNSQESVTEQDSKDSTYSLSSTLTLSKADYEKHKVYACEVTHQGLSSPVTKSFNRGEC
notes: also called ACE-31-VH / ACE-31-VL / ACE-31-LC
fold lower binding affinity than the parent antibody YBL-007 (PD-L1-his [4]): 40 fold | Kd (CD3 on T cells): 0.856 nM | Kd (PD-L1 on cells [2]): 20.6 nM | Kd (PD-L1-his [5]): 27.2 nM

B3: YBL-007 (항-PD-L1 모 항체) (antibody, V domains shown)
VH: QMQLVQSGAEVKKPGSSVKVSCKASGGTFSSYAISWVRQAPGQGLEWMGRIIPILGIANYAQKFQGRVTITADKSTSTAYMELSSLRSEDTAVYYCAKPRDGYNLVAFDIWGQGTMVTVSS
VL: QLVLTQPPSVSGAPGQRVTISCTGSSSNIGAGYDVHWYQQLPGAAPKLLIYGDINRPSGVPDRFSGSKSGISASLAITGLQAEDEADYYCQSYDSSLSGGVFGGGTKLTVLR
notes: Parent IgG; also called anti-PD-L1 parent antibody (Y-Biologics Inc.)
Kd (PD-L1-his [3]): 0.646 nM
